Reference: patent US20250012721A1, “FLUORESCENCE DETECTION KIT FOR ACTIVATED COMPLEMENT C1s, DETECTION METHOD USING SAME, AND USE THEREOF” (JIANGSU UNIVERSITY, priority 2022, published 2025)

Target: T1, activated C1s (Homo sapiens, UniProt P09871)
T1 construct: purchased Complement Technology
T1 sequence (P09871 16-437 limits assumed): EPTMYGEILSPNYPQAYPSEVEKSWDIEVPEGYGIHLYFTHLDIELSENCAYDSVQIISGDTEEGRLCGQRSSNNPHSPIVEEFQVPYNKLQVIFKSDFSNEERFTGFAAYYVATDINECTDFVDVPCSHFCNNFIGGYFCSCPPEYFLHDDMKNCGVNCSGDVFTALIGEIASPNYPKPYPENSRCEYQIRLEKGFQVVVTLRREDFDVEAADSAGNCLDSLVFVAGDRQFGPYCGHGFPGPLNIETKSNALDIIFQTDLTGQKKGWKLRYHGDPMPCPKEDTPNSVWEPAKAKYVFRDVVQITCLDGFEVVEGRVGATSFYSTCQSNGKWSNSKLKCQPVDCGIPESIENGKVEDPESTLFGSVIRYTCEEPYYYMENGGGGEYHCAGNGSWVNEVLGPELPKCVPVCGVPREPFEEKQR
T1 sequence (P09871 438-688 limits assumed): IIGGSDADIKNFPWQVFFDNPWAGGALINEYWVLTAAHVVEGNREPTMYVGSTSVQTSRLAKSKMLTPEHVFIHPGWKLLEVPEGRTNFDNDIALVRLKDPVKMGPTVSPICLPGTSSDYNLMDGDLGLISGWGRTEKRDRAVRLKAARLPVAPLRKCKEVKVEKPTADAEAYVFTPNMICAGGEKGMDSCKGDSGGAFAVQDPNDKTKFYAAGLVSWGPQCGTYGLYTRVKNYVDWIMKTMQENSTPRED
Experiment: N-carboxybenzyloxythiobenzyl ester/DTNB colorimetric detection of enzymatic activity of C1s standard
Type: biochemical
Conditions: for Enzymatic activity of C1s standards: conversion from Example 4
From the text: In the present disclosure, the enzymatic activity of activated C1s was detected in a sample to be tested. Therefore, it was necessary to determine the enzymatic activity of a C1s standard used in the experiment and to prepare a standard curve for later C1s enzymatic activity. The enzymatic activity of the activated C1s was detected by an N-carboxybenzyloxythiobenzyl ester/5,5′-dithiobis(2-nitrobenzoic acid) colorimetric method. The method specifically included the steps as follows: • (1) Materials: 1) Analysis buffer: 50 mM Tris, 250 mM NaCl, pH=8.0; • 2) substrate: N-carboxybenzyloxythiobenzyl ester (ZKSBzl), dissolved in 10 mM dimethyl sulfoxide; and • 3) 5,5′-dithiobis(2-nitrobenzoic acid) (DTNB), dissolved in 10 mM dimethyl sulfoxide. • (2) Detection of C1s activity units: • 1. The C1s standard was diluted to 0.2 μg/mL with an assay buffer. • 2. The DNTB was added to the assay buffer at a final concentration of 200 μM, and a substrate was added to the assay buffer at a final concentration of 1,000 μM. • 3. 50 μL of 0.2 ng/μL C1s was added into a plate. • 4. 50 μL of a mixture including 1,000 μM substrate/200 μM DTNB was added to the wells to start a reaction. • 5. An absorbance at 5 min was read at 405 nm with a microplate reader. • (3) Calculation of activated C1s:
In subsequent experiments, the enzymatic activity of the C1s standard was defined in this way.

B1: C1s standard: humanized or recombinant C1s standard; activated C1s used as calibrator (protein)
chain 1: T1 sequence (P09871 16-437 limits assumed)
chain 2: T1 sequence (P09871 438-688 limits assumed)
In the case of B1, the enzymatic activity (1 μg/mL C1s standard) is reported as 0.91 pmol/min/µg, the “Enzymatic activity of C1s standards” value (6.25 μg/mL) is reported as 5.7 pmol/min/µg and the “Enzymatic activity of C1s standards” value (12.5 μg/mL) is reported as 11.4 pmol/min/µg. For the same molecule, the “Enzymatic activity of C1s standards” value (25 μg/mL) was 22.8 pmol/min/µg, the “Enzymatic activity of C1s standards” value (50 μg/mL) was 45.5 pmol/min/µg and the “Enzymatic activity of C1s standards” value (100 μg/mL) was 91 pmol/min/µg. For the same molecule, the “Enzymatic activity of C1s standards” value (200 μg/mL) was 182 pmol/min/µg.
